Values belong to the molecule of their own block, whether it stands above or below them.
Columns and labels:
[1] = system: ERRγ2; assay: Reporter gene assay, ERRγ3 coexisted with ERRγ2, ERE luciferase reporter in CV-1 cells; assay type: cell-based, human; conditions: FIG. 15
Protocol: (§1) The reporter gene assay was performed using CV-1 cells (African green monkey kidney-derived cell line) as hosts. Host cells were transfected with luciferase reporter plasmids and expression plasmids for ERRγ3, ERRγ2, or both. They were then exposed to 4-hydroxytamoxifen at different concentrations (0, 10^−10 to −10^−5 M) for 24 hours, whereupon luciferase activity within the cells was measured.
Transfection was performed as follows: CV-1 cells were suspended at 2×10^5 cells/2.5 ml in DMEM medium supplemented with 10% fetal bovine serum, 2000 U/l of penicillin G, and 100 mg/l streptomycin. These cells were seeded to a 6-well plate at 2.5 ml/well, and cultured for 18 to 24 hours in a CO2 incubator at 37° C. in the presence of 5% CO2. 1 μg of each of the transcription factor expression plasmid, the luciferase reporter plasmid, and another luciferase reporter plasmid for normalizing the measured value (pRL-TK), were dissolved in Opti-MEM (Gibco BRL) to total of 150 μl. 7 μl of the cell transfection reagent LipofectAMINE 2000 (Gibco BRL) was diluted in 143 μl of Opti-MEM, and this was added to the mixture drop by drop while stirring. […]
Luciferase activity was measured using the Dual-Luciferase™ Reporter Assay System (Promega). […] The protocol for measurement was as follows: 50 μl of Luciferase Assay Reagent II was added to each well, stirred for 0.3 seconds and measured for one second.

[2] = molecular target: T1, ERα (Homo sapiens, UniProt P03372); assay: Reporter gene assay, ERRγ3 or ERRγ2 coexisted with ERα in CV-1 cells; assay type: cell-based; conditions: for enhancement of the transcriptional activation function of ERα: absence of 4-hydroxytamoxifen
T1 construct: expressed in transfected cells; host or cells: CV-1 (African green monkey kidney)
T1 sequence (P03372 1-595): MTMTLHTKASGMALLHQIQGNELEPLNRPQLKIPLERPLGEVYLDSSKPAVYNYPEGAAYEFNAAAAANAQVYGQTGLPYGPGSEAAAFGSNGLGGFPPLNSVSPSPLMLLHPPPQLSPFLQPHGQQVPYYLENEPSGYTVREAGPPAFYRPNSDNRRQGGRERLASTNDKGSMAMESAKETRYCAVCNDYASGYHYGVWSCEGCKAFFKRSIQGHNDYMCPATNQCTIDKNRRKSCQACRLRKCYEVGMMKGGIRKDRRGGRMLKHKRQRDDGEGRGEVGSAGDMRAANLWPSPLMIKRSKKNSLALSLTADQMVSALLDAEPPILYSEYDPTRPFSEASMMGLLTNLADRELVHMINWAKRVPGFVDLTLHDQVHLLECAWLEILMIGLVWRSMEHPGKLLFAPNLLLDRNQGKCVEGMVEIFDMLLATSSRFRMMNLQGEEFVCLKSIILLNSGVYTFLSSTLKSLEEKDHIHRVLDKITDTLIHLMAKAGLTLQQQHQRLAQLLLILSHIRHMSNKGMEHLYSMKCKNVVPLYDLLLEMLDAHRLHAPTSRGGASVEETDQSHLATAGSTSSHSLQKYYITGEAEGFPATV
Protocol: as §1
Transfection was performed as follows: CV-1 cells were suspended at 2×10^5 cells/2.5 ml in DMEM medium supplemented with 10% fetal bovine serum, 2000 U/l of penicillin G, and 100 mg/l streptomycin. These cells were seeded to a 6-well plate at 2.5 ml/well, and cultured for 18 to 24 hours in a CO2 incubator at 37° C. in the presence of 5% CO2. 1 μg of each of the transcription factor expression plasmid, the luciferase reporter plasmid, and another luciferase reporter plasmid for normalizing the measured value (pRL-TK), were dissolved in Opti-MEM (Gibco BRL) to total of 150 μl. 7 μl of the cell transfection reagent LipofectAMINE 2000 (Gibco BRL) was diluted in 143 μl of Opti-MEM, and this was added to the mixture drop by drop while stirring. The mixture was incubated for 20 minutes.
The LipofectAMINE-DNA mixture was diluted in 1.5 ml of Opti-MEM, and added to cells that had been twice washed with 1 ml of PBS(−). The cells were cultured for four hours. The transfection reagent was removed from the culture, and 200 μl of trypsin/EDTA was added to the cells, which were then incubated at 37° C. for five minutes. […] of DMEM was added to suspend the cells, which were transferred to a centrifuge tube, and centrifuged for three minutes at 1000 rpm. After centrifugation, the cells were resuspended in DMEM to a concentration of 1.6×10^4 cells/100 μl, and 100 μl samples were seeded to a 96-well plate. When evaluating agents, a two-fold concentrated solution was made by pre-diluting a 1000 times concentrated agent DMSO solution with culture medium. 50 μl of the solution was mixed with 50 μl of a cell suspension at 1.6×10^4 cells/50 μl, and the culture was incubated in a CO2 incubator at 37° C. and 5% CO2 for 24 hours.
Luciferase activity was measured using the Dual-Luciferase™ Reporter Assay System (Promega). The culture supernatant was removed from each well of the 96-well plate and washed once with 100 μl of PBS(−). 20 μl of ×1 PLB (Passive Lysis Buffer) was added, and the mixture was incubated at room temperature for 15 minutes, and then stored at −20° C. in the freezer until use. […] The protocol for measurement was as follows: 50 μl of Luciferase Assay Reagent II was added to each well, stirred for 0.3 seconds and measured for one second. […] of Stop&Glo™ Reagent was then added, stirred for 0.3 seconds, and measured for one second. […] Average values and standard errors were calculated from triplicate samples.
To confirm whether or not ERRγ3 can regulate the transcription-controlling function of nuclear receptors other than ERRγ2, ERRγ3's function of regulating the transcription-controlling activity of nuclear receptors related to ERRγ (ERα, ERβ, and TR) was evaluated using a reporter gene assay. […] In addition to 4-hydroxytamoxifen, the cells were also contacted with 10^−5 M of (R)-estradiol in experiments related to ERα and ERβ, and 10^−5 M of thyroxine in the experiment related to TR.
The transfected cells were contacted with varying concentrations of 4-hydroxytamoxifen in the absence of […] or presence of 10^−7 M of β-estradiol.

Chain of ERRγ2 (P62508 whole entry): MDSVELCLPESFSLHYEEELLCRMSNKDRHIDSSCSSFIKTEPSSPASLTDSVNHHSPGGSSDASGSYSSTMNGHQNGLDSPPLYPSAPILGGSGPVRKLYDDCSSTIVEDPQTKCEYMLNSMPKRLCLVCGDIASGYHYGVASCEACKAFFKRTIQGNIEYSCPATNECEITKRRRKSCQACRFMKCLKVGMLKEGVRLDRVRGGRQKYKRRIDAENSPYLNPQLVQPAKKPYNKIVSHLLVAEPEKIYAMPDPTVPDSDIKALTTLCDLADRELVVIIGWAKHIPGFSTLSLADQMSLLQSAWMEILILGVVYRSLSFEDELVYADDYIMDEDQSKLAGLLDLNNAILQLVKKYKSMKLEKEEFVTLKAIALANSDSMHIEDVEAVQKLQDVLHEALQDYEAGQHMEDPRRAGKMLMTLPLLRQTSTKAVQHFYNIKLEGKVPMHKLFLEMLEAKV

Molecule: 4-hydroxytamoxifen [reference compound]
4-hydroxytamoxifen concentration at which the enhancing function of ERRγ3 on ERRγ2 was reduced ([1]; CV-1 cells, 24 hours exposure): ≥ 10^−6 M
effect of 4-hydroxytamoxifen on the function of ERRγ3 on ERα ([2]; in the presence of the ligand, 10^−5 M (R)-estradiol, CV-1 cells): increased dependent on the concentration of 4-hydroxytamoxifen
effect of 4-hydroxytamoxifen on the transcription enhancing function of ERRγ3 on ERα ([2]; β-estradiol absent or 10^−7 M, 4-hydroxytamoxifen at high concentrations, FIGS. 19-20): reduced in the presence of 4-hydroxytamoxifen at high concentrations

function enhancement of the transcription-controlling activity of ERα ([2]; ERRγ3 with ERα, 10^−5 M (R)-estradiol, CV-1 cells, FIG. 16): 13-74%
enhancement of the transcriptional activation function of ERα ([2]; absence of β-estradiol, FIG. 19): 64%
enhancement of the transcriptional activation function of ERα ([2]; presence of 10^−7 M β-estradiol, FIG. 20): 18%
B1: ERRγ3: novel ERRγ isoform, nuclear receptor protein of 396 amino acids (SEQ ID NO: 2) lacking part of the DNA binding domain (protein, listed as Homo sapiens)
chain: MSNKDRHIDSSCSSFIKTEPSSPASLTDSVNHHSPGGSSDASGSYSSTMNGHQNGLDSPPLYPSAPILGGSGPVRKLYDDCSSTIVEDPQTKCEYMLNSMPKRLCLVCGDIASGYHYGVASCEACKAFFKRTIQGVRLDRVRGGRQKYKRRIDAENSPYLNPQLAQPAKKPYNKIVSHLLVAEPEKIYAMPDPTVPDSDIKALTTLCDLADRELVVIIGWAKHIPGFSTLSLADQMSLLQSAWMEILILGVVYRSLSFEDELVYADDYIMDEDQSKLAGLLDLNNAILQLVKKYKSMKLEKEEFVTLKAIALANSDSMHIEDVEAVQKLQDVLHEALQDYEAGQHMEDPRRAGKMLMTLPLLRQTSTKAVQHFYNIKLEGKVPMHKLFLEMLEAKV
enhancement of the transcriptional activation function of ERRγ2 ([1]; ERRγ3 coexisted with ERRγ2, CV-1 cells, ERE luciferase reporter): 53-68%
